Results on 38 molecules are retold here after patent publication US20120277142A1 (HANALL BIOPHARMA, published 2012).

The chains are these.
B1: TNFRI126-A2 (receptor)
chain: MDSVCPQGKYIHPQNNSICCTKCHKGTYLYNDCPGPGQDTDCRECESGSFTAIENFLPACLSCSKCRKEMGQVEISSCTVDRDTVCGCRKNQYRHYWSENLFQCFNCSLCLNGTVHLSCQEKQNTVC
notes: Met-TNFRI126 mutant made in E. coli
B2: TNFRI126-A5 (receptor)
chain: B1 chain with I53V
notes: as for B1
B3: TNFRI126-A1 (receptor)
chain: B1 chain with I53S
notes: as for B1
B4: TNFRI126-A4 (receptor)
chain: B1 chain with I53A
notes: as for B1
B5: TNFRI126-A3 (receptor)
chain: B1 chain with I53G
notes: as for B1
B6: TNFRI171-S31 (receptor)
chain: MDSVCPQGKYIHPQNNSICCTKCHKGTYVYNDCPGPGQDTDCRECESGSFTAIENFLPACLSCSKCRKEMGQVEISSCTVDRDTVCGCRKNQYRHYWSENLFQCFNCSLCLNGTVHLSCQEKQNTVCTCHAGFFLRENECVSCSNCKKSLECTKLCLPQIENVKGTEDSGTT
notes: Met-TNFRI171 superlead mutant made in E. coli
B7: TNFRI171-S44 (receptor)
chain: B6 chain with V29L, I53H, E161Q
notes: as for B6
B8: TNFRI171-S50 (receptor)
chain: B6 chain with V29L, E54P, A59G, K122N
notes: as for B6
B9: TNFRI171-S62 (receptor)
chain: B6 chain with A59G, K122Q
notes: as for B6
B10: TNFRI171-S35 (receptor)
chain: B6 chain with V29L, D168N
notes: as for B6
B11: TNFRI171-S42 (receptor)
chain: B6 chain with V29L, I53H, K122Q
notes: as for B6
B12: TNFRI171-S57 (receptor)
chain: B6 chain with I53M, K122N
notes: as for B6
B13: TNFRI171-S39 (receptor)
chain: B6 chain with V29L, I53M, E161Q
notes: as for B6
B14: TNFRI171-S53 (receptor)
chain: B6 chain with K122Q
notes: as for B6
B15: TNFRI171-S43 (receptor)
chain: B6 chain with V29L, I53H, K122N
notes: as for B6
B16: TNFRI171-S52 (receptor)
chain: B6 chain with V29L, E54P, A59G, D168N
notes: as for B6
B17: TNFRI171-S60 (receptor)
chain: B6 chain with I53H, K122N
notes: as for B6
B18: TNFRI171-S58 (receptor)
chain: B6 chain with I53M, D168N
notes: as for B6
B19: TNFRI171-S56 (receptor)
chain: B6 chain with I53M, K122Q
notes: as for B6
B20: TNFRI171-S32 (receptor)
chain: B6 chain with V29L, K122Q
notes: as for B6
B21: TNFRI171-S47 (receptor)
chain: B6 chain with I53M, A59G
notes: as for B6
B22: TNFRI171-S33 (receptor)
chain: B6 chain with V29L, K122N
notes: as for B6
B23: TNFRI171-S40 (receptor)
chain: B6 chain with V29L, I53M, D168N
notes: as for B6
B24: TNFRI171-S34 (receptor)
chain: B6 chain with V29L, E161Q
notes: as for B6
B25: TNFRI171-S49 (receptor)
chain: B6 chain with V29L, E54P, A59G, K122Q
notes: as for B6
B26: TNFRI171-S54 (receptor)
chain: B6 chain with K122N
notes: as for B6
B27: TNFRI171-S38 (receptor)
chain: B6 chain with V29L, I53M, K122N
notes: as for B6
B28: TNFRI171-S48 (receptor)
chain: B6 chain with E54P, A59G
notes: as for B6
B29: TNFRI171-S63 (receptor)
chain: B6 chain with I53M, A59G, K122N
notes: Met-TNFRI171 superlead mutant made in E. coli; also called TNFRI-S63
B30: TNFRI171-S61 (receptor)
chain: B6 chain with I53H, D168N
notes: as for B6
B31: TNFRI171-S36 (receptor)
chain: B6 chain with I53M
notes: as for B6
B32: TNFRI171-S51 (receptor)
chain: B6 chain with V29L, E54P, A59G, E161Q
notes: as for B6
B33: TNFRI171-S46 (receptor)
chain: B6 chain with A59G
notes: as for B6
B34: TNFRI171-S55 (receptor)
chain: B6 chain with D168N
notes: as for B6
B35: TNFRI171-S37 (receptor)
chain: B6 chain with V29L, I53M, K122Q
notes: as for B6
B36: TNFRI171-S45 (receptor)
chain: B6 chain with V29L, I53H, D168N
notes: as for B6
B37: TNFRI171-S41 (receptor)
chain: B6 chain with I53H
notes: as for B6
B38: TNFRI171-S59 (receptor)
chain: B6 chain with I53H, K122Q
notes: as for B6

Where a chain is given by its changes, count along the chain named.

One test deals with T1, TNF-α (UniProt P01375 77-233, limits assumed).
T1 construct: also called tumor necrosis factor; ligand
Description: competition ELISA: sample vs plate-bound TNFRI190 for TNF-α, from IC50, relative to wild-type TNFRI126. On the procedure: (§1) Each well was washed three times with 300 μL of washing buffer (0.05% Tween-20, PBS, pH 7.4) and incubated at room temperature for 2 hours with 300 μL of a blocking buffer (5% skim milk, PBS, pH 7.4). Then, each well was washed as mentioned above. A sample of interest was diluted to concentrations of 500 nM, 125 nM, 31 nM, 7.8 nM, 1.9 nM, 0.48 nM, 0.12 nM, and 0.03 nM in series and loaded in an amount of 100 μL into each well in duplicate. To each well was added 100 μL of 50 ng/ml TNF-α, followed by incubation at room temperature for 2 hours. After the wells were washed with a washing buffer, 100 μg/mL anti-TNF-α antibody solution was diluted 1/1000, added in an amount of 100 μL per each well, and incubated at room temperature for 2 hours. After the plates were washed with a washing buffer, a substrate was added in an amount of 100 μL to each well and reacted at room temperature for 15 min. In each well, 100 μL of the substrate 3,3′,5,5′-tetramethylbenzidine (RnD, Cat. No: DY999) was reacted at room temperature for 15 min, followed by adding 50 μL of 1.0 M sulfuric acid (Samchun Chemical, Cat. No: 52129) to each well to stop the reaction.
Affinity of Met-TNFRI and Met-TNFRI mutants for TNF-α was determined by measuring an absorbance change with concentration and evaluating IC₅₀ value by measuring an absorbance change with concentration.
Take B1: the “Affinity (%)” value stood at 829%.

Take B2: the “Affinity (%)” value stood at 712%.

On to B3, for which the “Affinity (%)” value was 324%.

As to B4, the “Affinity (%)” value is 524%.

As for B5, the “Affinity (%)” value amounted to 341%.

A further test has as its target T1, TNF-α. As to the kind of experiment: competition ELISA: sample vs plate-bound TNFRI190 for TNF-α, from IC50, relative to wild-type TNFRI171. On the procedure:
as §1
The affinity of the Met-TNFRI for TNF-α was assayed using the same procedure as in [Experimental Example 1]
On to B6, for which the “Relative Affinity for Ligand (%)” value was 563%.

As for B7, the “Relative Affinity for Ligand (%)” value stood at 694%.

Turning to B8, the “Relative Affinity for Ligand (%)” value amounted to 589%.

With B9, the “Relative Affinity for Ligand (%)” value amounted to 1200%.

With B10, the “Relative Affinity for Ligand (%)” value is 521%.

Turning to B11, the “Relative Affinity for Ligand (%)” value came out at 416%.

On to B12, for which the “Relative Affinity for Ligand (%)” value came to 773%.

On to B13, for which the “Relative Affinity for Ligand (%)” value was determined as 705%.

Regarding B14, the “Relative Affinity for Ligand (%)” value was determined as 1020%.

As for B15, the “Relative Affinity for Ligand (%)” value is 579%.

For the molecule B16, the “Relative Affinity for Ligand (%)” value was 626%.

As to B17, the “Relative Affinity for Ligand (%)” value was determined as 775%.

Turning to B18, the “Relative Affinity for Ligand (%)” value stood at 978%.

Consider B19, for which the “Relative Affinity for Ligand (%)” value stood at 510%.

Take B20: the “Relative Affinity for Ligand (%)” value came to 668%.

On to B21, for which the “Relative Affinity for Ligand (%)” value is 758%.

Turning to B22, the “Relative Affinity for Ligand (%)” value came to 568%.

B23: the “Relative Affinity for Ligand (%)” value amounted to 773%.

With B24, the “Relative Affinity for Ligand (%)” value is 700%.

B25: the “Relative Affinity for Ligand (%)” value was found to be 547%.

B26: the “Relative Affinity for Ligand (%)” value was found to be 900%.

As for B27, the “Relative Affinity for Ligand (%)” value is 589%.

For the molecule B28, the “Relative Affinity for Ligand (%)” value worked out at 594%.

Take B29: the “Relative Affinity for Ligand (%)” value worked out at 1350%.

Turning to B30, the “Relative Affinity for Ligand (%)” value is 778%.

Regarding B31, the “Relative Affinity for Ligand (%)” value came out at 510%.

In the case of B32, the “Relative Affinity for Ligand (%)” value came to 537%.

As for B33, the “Relative Affinity for Ligand (%)” value was 805%.

As to B34, the “Relative Affinity for Ligand (%)” value stood at 973%.

Turning to B35, the “Relative Affinity for Ligand (%)” value came out at 668%.

As to B36, the “Relative Affinity for Ligand (%)” value came out at 679%.

With B37, the “Relative Affinity for Ligand (%)” value worked out at 558%.

For B38, the “Relative Affinity for Ligand (%)” value was found to be 684%.
